Data published in paper PMC9769723.

Tests used:
[1] = biological target: NpSRII (Natronomonas pharaonis) (UniProt P42196); conditions: cited from earlier work
[2] = biological target: Trichococcus flocculiformis photolyase (TfPHR), class 2 cyclobutane pyrimidine dimer (CPDII) photolyase (Trichococcus flocculiformis); experiment: shift of the absorption spectrum of the rhodopsin after mixing; purified TfHeR and TfPHR mixed at a 1:4 molar ratio, time-dependent absorption spectra (UV-2450 spectrometer)
[3] = biological target: Trichococcus flocculiformis photolyase (TfPHR), class 2 cyclobutane pyrimidine dimer (CPDII) photolyase (Trichococcus flocculiformis); experiment: ITC; MicroCal ITC200; both proteins in sonication buffer (150 mM NaCl, 50 mM Tris-HCl pH 7.0) with 0.02% DDM; which protein was in the syringe is not given
[4] = biological target: Trichococcus flocculiformis photolyase (TfPHR), class 2 cyclobutane pyrimidine dimer (CPDII) photolyase (Trichococcus flocculiformis)

UniProt P42196, sequence (P42196 whole entry): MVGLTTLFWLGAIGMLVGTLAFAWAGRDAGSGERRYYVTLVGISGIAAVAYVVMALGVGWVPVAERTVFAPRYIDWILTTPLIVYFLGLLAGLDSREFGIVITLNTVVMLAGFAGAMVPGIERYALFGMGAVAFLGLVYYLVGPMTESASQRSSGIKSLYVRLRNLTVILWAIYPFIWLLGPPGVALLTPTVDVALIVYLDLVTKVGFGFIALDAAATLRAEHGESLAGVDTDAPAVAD

| shift of the absorption maximum after mixing (blue shift) [2] [nm] | Kd [3] [µM] | dH [3] [kcal/mol] | Substance | Kd [1] [µM] | in vitro repair of UV-damaged oligo(dT)20 by TfPHR under white light (absorbance at 265 nm), with TfHeR against TfPHR alone, at saturation [4] [fold] |
| --- | --- | --- | --- | --- | --- |
| – | – | – | NpHtrII (from UniProt P42259) | 0.65 | – |
| 4 | 121 | – | TfHeR E97Q mutant (natural protein) | – | – |
| 8 | 22 | -18.8 | Trichococcus flocculiformis heliorhodopsin (TfHeR) (natural protein) | – | 3 |
